Where two headings read alike, the source gives them in different places.
Tests used:
[1] = target: HIV-1 BH10 GagΔp6 (HIV-1 BH10); assay: native MS
[2] = target: HIV-1 BH10 GagΔp6 (HIV-1 BH10); assay: native MS; remark: listed apart in the source
[3] = target: WT HIV-1 BH10 Gag (HIV-1 BH10); assay: native MS
[4] = target: WT HIV-1 BH10 Gag (HIV-1 BH10); assay: native MS; remark: listed apart in the source
WT Gag [5] = target: T1, WT Gag (HIV-1 BH10, UniProt P03347 1-512); assay: fluorescence anisotropy salt titration
WT Gag [6] = target: T1, WT Gag; assay: native MS

## HIV-1 BH10 GagΔp6 (domain or fragment)
[1]
  stoichiometry N: 2
[2]
  stoichiometry N: 2

## WT HIV-1 BH10 Gag (natural protein)
[3]
  stoichiometry N: 2
[4]
  stoichiometry N: 2

B1: Psi RNA-FTSC (structured_RNA)
RNA: GGUCUCUCGACGCAGGACUCGGCUUGCUGGAGACGGCAAGAGGCGAGGGGCGGCGACUGGUGAGUACGCCAAAAAUUUUGACUAGCGGAGGCUAGAAGGAGAGA
WT Gag [5]
  Kd: 77 µM

B2: TARpolyA RNA (structured_RNA)
RNA: GGGUCUCUCUGGUUAGACCAGAUCUGAGCCUGGGAGCUCUCUGGCUAACUAGGGAACCCACUGCUUAAGCCUCAAUAAAGCUUGCCUUGAGUGCUCAAAGUAGUG
WT Gag [6]
  binding result: binds

Source: doi:10.1101/2020.06.18.159822
